Reference: patent publication US20140140975A1

What was measured:
[1] = target: Fas death receptor (mouse) (UniProt P25446); test: cell-based or functional assay
recombinant human GRX1 = recombinant human GRX1 (UniProt P35754)
Chain of UniProt P35754 (P35754 whole entry): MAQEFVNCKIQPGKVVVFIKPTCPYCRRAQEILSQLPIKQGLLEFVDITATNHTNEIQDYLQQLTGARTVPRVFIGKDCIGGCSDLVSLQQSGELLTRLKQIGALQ

Chain of UniProt P25446 (P25446 22-327): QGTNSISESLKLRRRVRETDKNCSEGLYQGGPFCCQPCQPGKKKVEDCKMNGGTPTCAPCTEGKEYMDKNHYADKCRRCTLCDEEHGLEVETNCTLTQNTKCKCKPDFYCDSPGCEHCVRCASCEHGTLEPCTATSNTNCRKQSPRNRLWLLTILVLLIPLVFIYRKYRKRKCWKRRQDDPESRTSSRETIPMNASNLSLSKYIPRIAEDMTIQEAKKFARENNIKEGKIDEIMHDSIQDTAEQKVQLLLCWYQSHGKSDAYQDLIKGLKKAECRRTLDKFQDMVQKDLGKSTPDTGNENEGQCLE

Substance | catalytic activity of GRX1 in lung epithelial cells [1] | cleavage of GRX1 (Western Blotting) (recombinant human GRX1)
Fas Ligand | 50 % decrease | 
recombinant Caspase 3 |  | Treatment of recombinant human GRX1 with recombinant Caspase 8 or 3 results in cleavage of GRX1
recombinant Caspase 8 |  | Treatment of recombinant human GRX1 with recombinant Caspase 8 or 3 results in cleavage of GRX1
